Experimental data taken from patent US20140011732A1.

Target: human serum albumin (HSA) (human) (UniProt P02768)
Experiment: competition SPA on biotinylated HSA, 125I acylated GLP-1 tracer

Sequence of N-epsilon37-[2-(2-[2-(2-[2-(2-((R)-3-[1-(17-Carboxyheptadecanoyl)piperidin-4-ylcarbonylamino]3-carboxypropionylamino)ethoxy)ethoxy]acetylamino)ethoxy]ethoxy)acetyl][DesaminoHis7, Glu22 Arg26, Arg 34, (peptide): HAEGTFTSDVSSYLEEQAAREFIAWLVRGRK

EC50: 800 nM
Substance: N-epsilon37-[2-(2-[2-(2-[2-(2-((R)-3-[1-(17-Carboxyheptadecanoyl)piperidin-4-ylcarbonylamino]3-carboxypropionylamino)ethoxy)ethoxy]acetylamino)ethoxy]ethoxy)acetyl][DesaminoHis7, Glu22 Arg26, Arg 34, Phe(m-CF3)28]GLP-1-(7-37)amide (peptide)
